The source of these data is the supplement of paper PMC10567573.

± gives the standard deviation.

The nature of this data set: protein stability index of a GFP-peptide fusion (GPS, HEK-293T) (PSI 1-6); higher = more stable.
Setting [1] is: treatment: DMSO, c terminus: a fixed tail appended.
Setting [2] is: treatment: MLN4924 1 uM, 8 h, c terminus: a fixed tail appended.
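Further: 24-mer peptide tiles fused after GFP, lentivirally expressed, FACS-sorted into six equal bins by GFP/DsRed ratio, decoded by Illumina sequencing, PSI is the read-weighted mean bin number.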

KSDSPTGDVLLDETLKHIKATEPT [GOLPH3L]: the protein stability index is 5.16 ± 0.27 under setting [1] and 5.26 ± 0.15 under setting [2].

On to KSHVMDQAINNAINYLGAESLRPL [IKZF1], for which the protein stability index worked out at 2.58 ± 0.24 under setting [1] and 2.49 ± 0.31 under setting [2].

As for KSISPWKSPPQLRQFLPEEFMKTL [DENND6A], the protein stability index reads like this: under setting [1], 2.47 ± 0.088; under setting [2], 2.61 ± 0.3.

In the case of KSLSIQYLELDRLVWRNSIRSSFI [FBXO39], the protein stability index runs as follows: under setting [1], 2.51 ± 0.64; under setting [2], 2.28 ± 0.17.

Regarding KTESSGIETEPTVHHLPLSTEKVV [EPB41L3], the protein stability index under setting [1] is 5.21 ± 0.14 and the protein stability index under setting [2] was 5 ± 0.25.

Consider KTMQSEETRVWHRRDGKWQNVHFH [CAMK2D], for which the protein stability index came to 2.85 ± 0.15 under setting [1] and 3.14 ± 0.16 under setting [2].

Turning to KTQSELASESEHIPKPQSTGWFGG [MIA2], the protein stability index reads like this: under setting [1], 3.97 ± 0.12; under setting [2], 4.43 ± 0.096.

KTSLAPYVKVFEHFLENLDKSRKG [PRIM1]: the protein stability index under setting [1] is 2.54 ± 0.39 and the protein stability index under setting [2] came to 3.12 ± 0.46.

Regarding KVMIHPDPERRPSAMALVKHSVLL [WEE1], the protein stability index runs as follows: under setting [1], 2.22 ± 0.14; under setting [2], 2.34 ± 0.57.

For the sequence KVQNECPGITRVYSIGRSVEGRHL [CPN1], the protein stability index by setting is: under setting [1], 3.08 ± 0.22; under setting [2], 3.29 ± 0.5.

For KVSGNRCASPVTGPGSKRDAHFCA [ESR2], the protein stability index is 2.76 ± 0.44 under setting [1] and 2.79 ± 0.16 under setting [2].

Turning to KYRRHFLRFCHNNKKAKRYLLHGL [EIF5], the protein stability index by setting is: under setting [1], 2.21 ± 0.2; under setting [2], 2.27 ± 0.19.

As to LAFKNDIQFWNSRQSLEGLSVRSV [CLPTM1], the protein stability index under setting [1] amounted to 2.45 ± 0.18 and the protein stability index under setting [2] is 2.5 ± 0.14.

With LAIKAITSSAKVDMTFEEEAQLLQ [FKBP8], the protein stability index reads like this: under setting [1], 2.95 ± 0.19; under setting [2], 3.29 ± 0.34.

With LAMWTTALLHQAETLQPSVWFGGR [TMEM175], the protein stability index came out at 3 ± 0.56 under setting [1] and 2.82 ± 0.86 under setting [2].

With LCGPHAKAPYLCEATHEPAAARIR, the protein stability index is 3.75 ± 0.2 under setting [1] and 3.61 ± 0.24 under setting [2].

For LDNTKKKMEIYQKENKDVIQKNKL [MNAT1], the protein stability index is, setting by setting: under setting [1], 4.44 ± 0.2; under setting [2], 4.34 ± 0.18.

LDPVAETAIRQLTEPSGRVAKKTP [C2CD2L]: the protein stability index reads like this: under setting [1], 5.66 ± 0.17; under setting [2], 5.18 ± 0.47.

In the case of LEGLNLSILKAMGKTKKDYQEASN [NECAB1], the protein stability index under setting [1] came to 3.78 ± 0.14 and the protein stability index under setting [2] is 3.91 ± 0.22.

In the case of LEKWMQKNVEENLYSSSLGGGVAT [GLT8D2], the protein stability index reads like this: under setting [1], 3.44 ± 0.2; under setting [2], 3.69 ± 0.26.

On to LELLEEVLALGLRTDVGITHQHWQ [RSAD1], for which the protein stability index reads like this: under setting [1], 2.3 ± 0.72; under setting [2], 2.13 ± 0.23.

LEQEEERLSKEWEDSKRWSKMDQL [CHGA]: the protein stability index is, setting by setting: under setting [1], 4.81 ± 0.24; under setting [2], 4.73 ± 0.17.

On to LETNQQHFHALCHSLLVSTHVPR [M1AP], for which the protein stability index was determined as 2.48 ± 0.43 (treatment: DMSO, c terminus: native) and 3.13 ± 0.9 (treatment: MLN4924 1 uM, 8 h, c terminus: native).

In the case of LEVAMEEEGLADEEKKLRRSQHAR [STK38L], the protein stability index stood at 5.43 ± 0.3 under setting [1] and 5.27 ± 0.35 under setting [2].

Sequence LEVPAGSRLNLTGLGYFSCHSHTV [CCDC3] yielded a protein stability index under setting [1] of 2.57 ± 0.33 and a protein stability index under setting [2] of 2.2 ± 0.25.

Consider LEVSQLEGSLQQPKAQSAMSPYLV [SMG5], for which the protein stability index turned out to be 3.37 ± 0.21 under setting [1] and 3.46 ± 0.21 under setting [2].

For LFGGFTTDKQPLSDAWTYCISKNE [KLHDC2], the protein stability index was determined as 2.63 ± 0.47 under setting [1] and 2.75 ± 0.28 under setting [2].

As for LGDRDRSRAALVCRKWNQMMYSAE [FBXO39], the protein stability index amounted to 2.72 ± 0.21 under setting [1] and 2.79 ± 0.17 under setting [2].

Take LGHMFMYFLRGSLPWQGLKADTLK [CSNK1G3]: the protein stability index by setting is: under setting [1], 2.06 ± 0.26; under setting [2], 2.57 ± 0.98.
